Results taken from article PMC8979313.

Biological target: T1, Pr(brC)2 (UniProt P03069 226-249+=GC, internal_change)
T1 chain: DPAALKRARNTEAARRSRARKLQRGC
Experiment: EMSA

B1: Random (dsDNA)
DNA 1: AGCGCACGTCCTGCACGTC
DNA 2: GACGTGCAGGACGTGCGCT
B1: no binding.
